Consider 17 proteins from FireProtDB (doi:10.1126/science.aai7825).

For the data set the following is noted: Escherichia coli (strain K12); pH 7.5; Thermal; Intensity; HEPES 20mM; transition: 2; whole UniProt chain shown.

B1: Enoyl-[acyl-carrier-protein] reductase [NADH] FabI wild type, P0AEK4 (protein)
chain: MGFLSGKRILVTGVASKLSIAYGIAQAMHREGAELAFTYQNDKLKGRVEEFAAQLGSDIVLQCDVAEDASIDTMFAELGKVWPKFDGFVHSIGFAPGDQLDGDYVNAVTREGFKIAHDISSYSFVAMAKACRSMLNPGSALLTLSYLGAERAIPNYNVMGLAKASLEANVRYMANAMGPEGVRVNAISAGPIRTLAASGIKDFRKMLAHCEAVTPIRRTVTIEDVGNSAAFLCSDLSAGISGEVVHVDGGFSIAAMNELELK
With B1, the Tm is 45.3 °C.

B2: Zinc chaperone YeiR wild type, P33030 (protein)
chain: MTRTNLITGFLGSGKTTSILHLLAHKDPNEKWAVLVNEFGEVGIDGALLADSGALLKEIPGGCMCCVNGLPMQVGLNTLLRQGKPDRLLIEPTGLGHPKQILDLLTAPVYEPWIDLRATLCILDPRLLLDEKSASNENFRDQLAAADIIVANKSDRTTPESEQALQRWWQQNGGDRQLIHSEHGKVDGHLLDLPRRNLAELPASAAHSHQHVVKKGLAALSLPEHQRWRRSLNSGQGYQACGWIFDADTVFDTIGILEWARLAPVERVKGVLRIPEGLVRINRQGDDLHIETQNVAPPDSRIELISSSEADWNALQSALLKLRLATTA
B2: the Tm worked out at 46.2 °C.

B3: Pyruvate formate-lyase 1-activating enzyme wild type, P0A9N4 (protein)
chain: MSVIGRIHSFESCGTVDGPGIRFITFFQGCLMRCLYCHNRDTWDTHGGKEVTVEDLMKEVVTYRHFMNASGGGVTASGGEAILQAEFVRDWFRACKKEGIHTCLDTNGFVRRYDPVIDELLEVTDLVMLDLKQMNDEIHQNLVGVSNHRTLEFAKYLANKNVKVWIRYVVVPGWSDDDDSAHRLGEFTRDMGNVEKIELLPYHELGKHKWVAMGEEYKLDGVKPPKKETMERVKGILEQYGHKVMF
Consider B3, for which the Tm was determined as 43.4 °C.

B4: NADPH-dependent 7-cyano-7-deazaguanine reductase wild type, Q46920 (protein)
chain: MSSYANHQALAGLTLGKSTDYRDTYDASLLQGVPRSLNRDPLGLKADNLPFHGTDIWTLYELSWLNAKGLPQVAVGHVELDYTSVNLIESKSFKLYLNSFNQTRFNNWDEVRQTLERDLSTCAQGKISVALYRLDELEGQPIGHFNGTCIDDQDITIDNYEFTTDYLENATCGEKVVEETLVSHLLKSNCLITHQPDWGSLQIQYRGRQIDREKLLRYLVSFRHHNEFHEQCVERIFNDLLRFCQPEKLSVYARYTRRGGLDINPWRSNSDFVPSTTRLVRQ
Consider B4, for which the Tm was determined as 43.9 °C.

B5: tRNA pseudouridine synthase D wild type, Q57261 (protein)
chain: MIEFDNLTYLHGKPQGTGLLKANPEDFVVVEDLGFEPDGEGEHILVRILKNGCNTRFVADALAKFLKIHAREVSFAGQKDKHAVTEQWLCARVPGKEMPDLSAFQLEGCQVLEYARHKRKLRLGALKGNAFTLVLREVSNRDDVEQRLIDICVKGVPNYFGAQRFGIGGSNLQGAQRWAQTNTPVRDRNKRSFWLSAARSALFNQIVAERLKKADVNQVVDGDALQLAGRGSWFVATTEELAELQRRVNDKELMITAALPGSGEWGTQREALAFEQAAVAAETELQALLVREKVEAARRAMLLYPQQLSWNWWDDVTVEIRFWLPAGSFATSVVRELINTTGDYAHIAE
Turning to B5, the Tm came to 43.8 °C.

B6: Uncharacterized protein YjaG wild type, P32680 (protein)
chain: MLQNPIHLRLERLESWQHVTFMACLCERMYPNYAMFCQQTGFGDGQIYRRILDLIWETLTVKDAKVNFDSQLEKFEEAIPSADDFDLYGVYPAIDACVALSELVHSRLSGETLEHAVEVSKTSITTVAMLEMTQAGREMSDEELKENPAVEQEWDIQWEIFRLLAECEERDIELIKGLRADLREAGESNIGIIFQQ
Regarding B6, the midpoint of thermal melting (Tm) came to 46.1 °C.

B7: NH(3)-dependent NAD(+) synthetase wild type, P18843 (protein)
chain: MTLQQQIIKALGAKPQINAEEEIRRSVDFLKSYLQTYPFIKSLVLGISGGQDSTLAGKLCQMAINELRLETGNESLQFIAVRLPYGVQADEQDCQDAIAFIQPDRVLTVNIKGAVLASEQALREAGIELSDFVRGNEKARERMKAQYSIAGMTSGVVVGTDHAAEAITGFFTKYGDGGTDINPLYRLNKRQGKQLLAALACPEHLYKKAPTADLEDDRPSLPDEVALGVTYDNIDDYLEGKNVPQQVARTIENWYLKTEHKRRPPITVFDDFWKK
As to B7, the Tm was found to be 45.1 °C.

B8: Acyl-CoA thioester hydrolase YciA wild type, P0A8Z0 (protein)
chain: MSTTHNVPQGDLVLRTLAMPADTNANGDIFGGWLMSQMDIGGAILAKEIAHGRVVTVRVEGMTFLRPVAVGDVVCCYARCVQKGTTSVSINIEVWVKKVASEPIGQRYKATEALFKYVAVDPEGKPRALPVE
For B8, the Tm was determined as 46.3 °C.

B9: Transcriptional repressor MprA wild type, P0ACR9 (protein)
chain: MDSSFTPIEQMLKFRASRHEDFPYQEILLTRLCMHMQSKLLENRNKMLKAQGINETLFMALITLESQENHSIQPSELSCALGSSRTNATRIADELEKRGWIERRESDNDRRCLHLQLTEKGHEFLREVLPPQHNCLHQLWSALSTTEKDQLEQITRKLLSRLDQMEQDGVVLEAMS
On to B9, for which the Tm is 45.9 °C.

B10: Nicotinate phosphoribosyltransferase wild type, P18133 (protein)
chain: MTQFASPVLHSLLDTDAYKLHMQQAVFHHYYDVHVAAEFRCRGDDLLGIYADAIREQVQAMQHLRLQDDEYQWLSALPFFKADYLNWLREFRFNPEQVTVSNDNGKLDIRLSGPWREVILWEVPLLAVISEMVHRYRSPQADVAQALDTLESKLVDFSALTAGLDMSRFHLMDFGTRRRFSREVQETIVKRLQQESWFVGTSNYDLARRLSLTPMGTQAHEWFQAHQQISPDLANSQRAALAAWLEEYPDQLGIALTDCITMDAFLRDFGVEFASRYQGLRHDSGDPVEWGEKAIAHYEKLGIDPQSKTLVFSDNLDLRKAVELYRHFSSRVQLSFGIGTRLTCDIPQVKPLNIVIKLVECNGKPVAKLSDSPGKTICHDKAFVRALRKAFDLPHIKKAS
Regarding B10, the Tm was found to be 45.7 °C.

B11: HTH-type transcriptional repressor PurR wild type, P0ACP7 (protein)
chain: MATIKDVAKRANVSTTTVSHVINKTRFVAEETRNAVWAAIKELHYSPSAVARSLKVNHTKSIGLLATSSEAAYFAEIIEAVEKNCFQKGYTLILGNAWNNLEKQRAYLSMMAQKRVDGLLVMCSEYPEPLLAMLEEYRHIPMVVMDWGEAKADFTDAVIDNAFEGGYMAGRYLIERGHREIGVIPGPLERNTGAGRLAGFMKAMEEAMIKVPESWIVQGDFEPESGYRAMQQILSQPHRPTAVFCGGDIMAMGALCAADEMGLRVPQDVSLIGYDNVRNARYFTPALTTIHQPKDSLGETAFNMLLDRIVNKREEPQSIEVHPRLIERRSVADGPFRDYRR
With B11, the Tm came out at 45.6 °C.

B12: Homoserine O-succinyltransferase wild type, P07623 (protein)
chain: MPIRVPDELPAVNFLREENVFVMTTSRASGQEIRPLKVLILNLMPKKIETENQFLRLLSNSPLQVDIQLLRIDSRESRNTPAEHLNNFYCNFEDIQDQNFDGLIVTGAPLGLVEFNDVAYWPQIKQVLEWSKDHVTSTLFVCWAVQAALNILYGIPKQTRTEKLSGVYEHHILHPHALLTRGFDDSFLAPHSRYADFPAALIRDYTDLEILAETEEGDAYLFASKDKRIAFVTGHPEYDAQTLAQEFFRDVEAGLDPDVPYNYFPHNDPQNTPRASWRSHGNLLFTNWLNYYVYQITPYDLRHMNPTLD
Take B12: the melting temperature (Tm) came to 45.7 °C.

B13: Transcriptional regulatory protein PhoP wild type, P23836 (protein)
chain: MRVLVVEDNALLRHHLKVQIQDAGHQVDDAEDAKEADYYLNEHIPDIAIVDLGLPDEDGLSLIRRWRSNDVSLPILVLTARESWQDKVEVLSAGADDYVTKPFHIEEVMARMQALMRRNSGLASQVISLPPFQVDLSRRELSINDEVIKLTAFEYTIMETLIRNNGKVVSKDSLMLQLYPDAELRESHTIDVLMGRLRKKIQAQYPQEVITTVRGQGYLFELR
Consider B13, for which the Tm is 42.6 °C.

B14: Ribosome-recycling factor wild type, P0A805 (protein)
chain: MISDIRKDAEVRMDKCVEAFKTQISKIRTGRASPSLLDGIVVEYYGTPTPLRQLASVTVEDSRTLKINVFDRSMSPAVEKAIMASDLGLNPNSAGSDIRVPLPPLTEERRKDLTKIVRGEAEQARVAVRNVRRDANDKVKALLKDKEISEDDDRRSQDDVQKLTDAAIKKIEAALADKEAELMQF
As for B14, the Tm was determined as 44.4 °C.

B15: Acetylornithine deacetylase wild type, P23908 (protein)
chain: MKNKLPPFIEIYRALIATPSISATEEALDQSNADLITLLADWFKDLGFNVEVQPVPGTRNKFNMLASIGQGAGGLLLAGHTDTVPFDDGRWTRDPFTLTEHDGKLYGLGTADMKGFFAFILDALRDVDVTKLKKPLYILATADEETSMAGARYFAETTALRPDCAIIGEPTSLQPVRAHKGHISNAIRIQGQSGHSSDPARGVNAIELMHDAIGHILQLRDNLKERYHYEAFTVPYPTLNLGHIHGGDASNRICACCELHMDIRPLPGMTLNELNGLLNDALAPVSERWPGRLTVDELHPPIPGYECPPNHQLVEVVEKLLGAKTEVVNYCTEAPFIQTLCPTLVLGPGSINQAHQPDEYLETRFIKPTRELITQVIHHFCWH
With B15, the Tm was found to be 45.9 °C.

B16: Multidrug efflux pump subunit AcrA wild type, P0AE06 (protein)
chain: MNKNRGFTPLAVVLMLSGSLALTGCDDKQAQQGGQQMPAVGVVTVKTEPLQITTELPGRTSAYRIAEVRPQVSGIILKRNFKEGSDIEAGVSLYQIDPATYQATYDSAKGDLAKAQAAANIAQLTVNRYQKLLGTQYISKQEYDQALADAQQANAAVTAAKAAVETARINLAYTKVTSPISGRIGKSNVTEGALVQNGQATALATVQQLDPIYVDVTQSSNDFLRLKQELANGTLKQENGKAKVSLITSDGIKFPQDGTLEFSDVTVDQTTGSITLRAIFPNPDHTLLPGMFVRARLEEGLNPNAILVPQQGVTRTPRGDATVLVVGADDKVETRPIVASQAIGDKWLVTEGLKAGDRVVISGLQKVRPGVQVKAQEVTADNNQQAASGAQPEQSKS
Take B16: the Tm came to 45.7 °C.

B17: Ribosomal protein uL3 glutamine methyltransferase wild type, P39199 (protein)
chain: MDKIFVDEAVNELQTIQDMLRWSVSRFSAANIWYGHGTDNPWDEAVQLVLPSLYLPLDIPEDMRTARLTSSEKHRIVERVIRRVNERIPVAYLTNKAWFCGHEFYVDERVLVPRSPIGELINNKFAGLISKQPQHILDMCTGSGCIAIACAYAFPDAEVDAVDISPDALAVAEQNIEEHGLIHNVIPIRSDLFRDLPKVQYDLIVTNPPYVDAEDMSDLPNEYRHEPELGLASGTDGLKLTRRILGNAADYLADDGVLICEVGNSMVHLMEQYPDVPFTWLEFDNGGDGVFMLTKEQLIAAREHFAIYKD
Take B17: the Tm amounted to 45.5 °C.
